# Assay results: patent US20210246166A1 (Bayer, published 2021)
# Numbered stars: 1 amine (or outer) side, 2 acyl side, 3 side chain; on linkers, the order of the positions; unused ones are H or OH. Bridge positions count the residues as written; N and C are the ends. Square brackets hold non-standard residues; d marks the D form. Ends that are not written are not given here. * marks the point of attachment. X11 = (S)‑Piperidine‑3‑carboxylic acid, O=C([C@H]1CCCN([*:1])C1)[*:2]; NH(CH2CH2O)5CH2CO = O=C(COCCOCCOCCOCCOCCN[*:1])[*:2]; PEG9 = NCCOCCOCCOCCOCCOCCOCCOCCOCCOCCC(=O)O; Benzoyl(3-COOH) = O=C(O)c1cccc(C(=O)*)c1; Benzoyl(4-COOH) = O=C(O)c1ccc(C(=O)*)cc1; Nip(3R) = O=C([C@@H]1CCCN([*:1])C1)[*:2]; Oic = O=C(O)[C@@H]1C[C@@H]2CCCC[C@@H]2N1; PEG8 = NCCOCCOCCOCCOCCOCCOCCOCCOCCC(=O)O; tBuAla = CC(C)(C)C[C@H](N)C(=O)O; Pen = CC(C)(S)[C@H](N)C(=O)O; PEG2 = NCCOCCOCCC(=O)O; Sar = CNCC(=O)O
# T1: Recombinant human MASP1 enzyme (fragment corresponding to amino acids 297-699, C-terminal His Tag) (human, UniProt P48740 297-699)
# T1 sequence: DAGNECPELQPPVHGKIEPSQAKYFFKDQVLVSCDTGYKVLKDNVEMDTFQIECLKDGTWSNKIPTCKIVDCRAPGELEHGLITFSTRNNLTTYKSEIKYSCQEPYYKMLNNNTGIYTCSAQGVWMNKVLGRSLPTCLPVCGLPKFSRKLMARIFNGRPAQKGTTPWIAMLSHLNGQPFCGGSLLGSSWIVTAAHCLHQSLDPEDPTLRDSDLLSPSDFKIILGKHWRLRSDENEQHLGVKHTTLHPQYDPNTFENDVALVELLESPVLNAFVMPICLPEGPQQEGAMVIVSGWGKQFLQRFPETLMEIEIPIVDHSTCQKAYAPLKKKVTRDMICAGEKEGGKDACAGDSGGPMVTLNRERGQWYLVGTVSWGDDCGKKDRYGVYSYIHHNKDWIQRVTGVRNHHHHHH
# B1: (3-Carboxybenzoic acid)-GIC+SRSLP-(Oic)-I-(Pen)+IPD-OH (peptide)
# peptide: {Benzoyl(3-COOH)}-GICSRSLP[Oic]I[Pen]IPD-OH
# modifications: disulfide 3-11
# SMILES: CC[C@H](C)[C@H](NC(=O)CNC(=O)c1cccc(C(=O)O)c1)C(=O)N[C@H]1CSSC(C)(C)[C@@H](C(=O)N[C@H](C(=O)N2CCC[C@H]2C(=O)N[C@@H](CC(=O)O)C(=O)O)[C@@H](C)CC)NC(=O)[C@H]([C@@H](C)CC)NC(=O)[C@@H]2C[C@@H]3CCCC[C@@H]3N2C(=O)[C@@H]2CCCN2C(=O)[C@H](CC(C)C)NC(=O)[C@H](CO)NC(=O)[C@H](CCCNC(=N)N)NC(=O)[C@H](CO)NC1=O
# B2: ((N-Me)G)-IC+SRSLP-(Oic)-I-(Pen)+IPR-OH (peptide)
# peptide: [Sar]ICSRSLP[Oic]I[Pen]IPR-OH
# modifications: disulfide 3-11; N-terminus assumed
# SMILES: CC[C@H](C)[C@H](NC(=O)CNC)C(=O)N[C@H]1CSSC(C)(C)[C@@H](C(=O)N[C@H](C(=O)N2CCC[C@H]2C(=O)N[C@@H](CCCNC(=N)N)C(=O)O)[C@@H](C)CC)NC(=O)[C@H]([C@@H](C)CC)NC(=O)[C@@H]2C[C@@H]3CCCC[C@@H]3N2C(=O)[C@@H]2CCCN2C(=O)[C@H](CC(C)C)NC(=O)[C@H](CO)NC(=O)[C@H](CCCNC(=N)N)NC(=O)[C@H](CO)NC1=O
# B3: ((N-Me)G)-IC+SRSLP-(Oic)-I-(Pen)+IPY-OH (peptide)
# peptide: [Sar]ICSRSLP[Oic]I[Pen]IPY-OH
# modifications: disulfide 3-11; N-terminus assumed
# SMILES: CC[C@H](C)[C@H](NC(=O)CNC)C(=O)N[C@H]1CSSC(C)(C)[C@@H](C(=O)N[C@H](C(=O)N2CCC[C@H]2C(=O)N[C@@H](Cc2ccc(O)cc2)C(=O)O)[C@@H](C)CC)NC(=O)[C@H]([C@@H](C)CC)NC(=O)[C@@H]2C[C@@H]3CCCC[C@@H]3N2C(=O)[C@@H]2CCCN2C(=O)[C@H](CC(C)C)NC(=O)[C@H](CO)NC(=O)[C@H](CCCNC(=N)N)NC(=O)[C@H](CO)NC1=O
# B4: ((S)-Piperidine-3-Carboxylic Acid)-IC+SRSLP-(Oic)-I-(Pen)+IPD-OH (peptide)
# peptide: [X11]ICSRSLP[Oic]I[Pen]IPD-OH
# modifications: disulfide 3-11; N-terminus assumed
# SMILES: CC[C@H](C)[C@H](NC(=O)[C@H]1CCCNC1)C(=O)N[C@H]1CSSC(C)(C)[C@@H](C(=O)N[C@H](C(=O)N2CCC[C@H]2C(=O)N[C@@H](CC(=O)O)C(=O)O)[C@@H](C)CC)NC(=O)[C@H]([C@@H](C)CC)NC(=O)[C@@H]2C[C@@H]3CCCC[C@@H]3N2C(=O)[C@@H]2CCCN2C(=O)[C@H](CC(C)C)NC(=O)[C@H](CO)NC(=O)[C@H](CCCNC(=N)N)NC(=O)[C@H](CO)NC1=O
# B5: ((N-Me)G)-IC+SRS-((tBu)A)-PPI-(Pen)+IP-((N-Me)G)-((N-Me)G)-((N-Me)G)-OH (peptide)
# peptide: [Sar]ICSRS[tBuAla]PPI[Pen]IP[Sar][Sar][Sar]-OH
# modifications: disulfide 3-11; N-terminus assumed
# SMILES: CC[C@H](C)[C@H](NC(=O)CNC)C(=O)N[C@H]1CSSC(C)(C)[C@@H](C(=O)N[C@H](C(=O)N2CCC[C@H]2C(=O)N(C)CC(=O)N(C)CC(=O)N(C)CC(=O)O)[C@@H](C)CC)NC(=O)[C@H]([C@@H](C)CC)NC(=O)[C@@H]2CCCN2C(=O)[C@@H]2CCCN2C(=O)[C@H](CC(C)(C)C)NC(=O)[C@H](CO)NC(=O)[C@H](CCCNC(=N)N)NC(=O)[C@H](CO)NC1=O
# B6: ((N-Me)G)-IC+SRS-((tBu)A)-PPI-(Pen)+IP-(PEG5-CH2CO2H(18 atoms))-OH (peptide)
# peptide: [Sar]ICSRS[tBuAla]PPI[Pen]IP[NH(CH2CH2O)5CH2CO]-OH
# modifications: disulfide 3-11; N-terminus assumed
# SMILES: CC[C@H](C)[C@H](NC(=O)CNC)C(=O)N[C@H]1CSSC(C)(C)[C@@H](C(=O)N[C@H](C(=O)N2CCC[C@H]2C(=O)NCCOCCOCCOCCOCCOCC(=O)O)[C@@H](C)CC)NC(=O)[C@H]([C@@H](C)CC)NC(=O)[C@@H]2CCCN2C(=O)[C@@H]2CCCN2C(=O)[C@H](CC(C)(C)C)NC(=O)[C@H](CO)NC(=O)[C@H](CCCNC(=N)N)NC(=O)[C@H](CO)NC1=O
# B7: ((N-Me)G)-IC+SRSLP-(Oic)-I-(Pen)+IPGd-OH (peptide)
# peptide: [Sar]ICSRSLP[Oic]I[Pen]IPG[dD]-OH
# modifications: disulfide 3-11; N-terminus assumed
# SMILES: CC[C@H](C)[C@H](NC(=O)CNC)C(=O)N[C@H]1CSSC(C)(C)[C@@H](C(=O)N[C@H](C(=O)N2CCC[C@H]2C(=O)NCC(=O)N[C@H](CC(=O)O)C(=O)O)[C@@H](C)CC)NC(=O)[C@H]([C@@H](C)CC)NC(=O)[C@@H]2C[C@@H]3CCCC[C@@H]3N2C(=O)[C@@H]2CCCN2C(=O)[C@H](CC(C)C)NC(=O)[C@H](CO)NC(=O)[C@H](CCCNC(=N)N)NC(=O)[C@H](CO)NC1=O
# B8: ((N-Me)G)-IC+SRS-((tBu)A)-PPI-(Pen)+IP-(PEG1(10 atoms))-OH (peptide)
# peptide: [Sar]ICSRS[tBuAla]PPI[Pen]IP[PEG2]-OH
# modifications: disulfide 3-11; N-terminus assumed
# SMILES: CC[C@H](C)[C@H](NC(=O)CNC)C(=O)N[C@H]1CSSC(C)(C)[C@@H](C(=O)N[C@H](C(=O)N2CCC[C@H]2C(=O)NCCOCCOCCC(=O)O)[C@@H](C)CC)NC(=O)[C@H]([C@@H](C)CC)NC(=O)[C@@H]2CCCN2C(=O)[C@@H]2CCCN2C(=O)[C@H](CC(C)(C)C)NC(=O)[C@H](CO)NC(=O)[C@H](CCCNC(=N)N)NC(=O)[C@H](CO)NC1=O
# B9: ((N-Me)G)-IC+SRSLP-(Oic)-I-(Pen)+IPT-OH (peptide)
# peptide: [Sar]ICSRSLP[Oic]I[Pen]IPT-OH
# modifications: disulfide 3-11; N-terminus assumed
# SMILES: CC[C@H](C)[C@H](NC(=O)CNC)C(=O)N[C@H]1CSSC(C)(C)[C@@H](C(=O)N[C@H](C(=O)N2CCC[C@H]2C(=O)N[C@H](C(=O)O)[C@@H](C)O)[C@@H](C)CC)NC(=O)[C@H]([C@@H](C)CC)NC(=O)[C@@H]2C[C@@H]3CCCC[C@@H]3N2C(=O)[C@@H]2CCCN2C(=O)[C@H](CC(C)C)NC(=O)[C@H](CO)NC(=O)[C@H](CCCNC(=N)N)NC(=O)[C@H](CO)NC1=O
# B10: ((N-Me)G)-IC+SRSLP-(Oic)-I-(Pen)+IPDA-OH (peptide)
# peptide: [Sar]ICSRSLP[Oic]I[Pen]IPDA-OH
# modifications: disulfide 3-11; N-terminus assumed
# SMILES: CC[C@H](C)[C@H](NC(=O)CNC)C(=O)N[C@H]1CSSC(C)(C)[C@@H](C(=O)N[C@H](C(=O)N2CCC[C@H]2C(=O)N[C@@H](CC(=O)O)C(=O)N[C@@H](C)C(=O)O)[C@@H](C)CC)NC(=O)[C@H]([C@@H](C)CC)NC(=O)[C@@H]2C[C@@H]3CCCC[C@@H]3N2C(=O)[C@@H]2CCCN2C(=O)[C@H](CC(C)C)NC(=O)[C@H](CO)NC(=O)[C@H](CCCNC(=N)N)NC(=O)[C@H](CO)NC1=O
# B11: ((R)-Piperidine-3-Carboxylic Acid)-IC+SRSLP-(Oic)-I-(Pen)+IPD-OH (peptide)
# peptide: [Nip(3R)]ICSRSLP[Oic]I[Pen]IPD-OH
# modifications: disulfide 3-11; N-terminus assumed
# SMILES: CC[C@H](C)[C@H](NC(=O)[C@@H]1CCCNC1)C(=O)N[C@H]1CSSC(C)(C)[C@@H](C(=O)N[C@H](C(=O)N2CCC[C@H]2C(=O)N[C@@H](CC(=O)O)C(=O)O)[C@@H](C)CC)NC(=O)[C@H]([C@@H](C)CC)NC(=O)[C@@H]2C[C@@H]3CCCC[C@@H]3N2C(=O)[C@@H]2CCCN2C(=O)[C@H](CC(C)C)NC(=O)[C@H](CO)NC(=O)[C@H](CCCNC(=N)N)NC(=O)[C@H](CO)NC1=O
# B12: (4-Carboxybenzoic acid)-GIC+SRSLP-(Oic)-I-(Pen)+IPD-OH (peptide)
# peptide: {Benzoyl(4-COOH)}-GICSRSLP[Oic]I[Pen]IPD-OH
# modifications: disulfide 3-11
# SMILES: CC[C@H](C)[C@H](NC(=O)CNC(=O)c1ccc(C(=O)O)cc1)C(=O)N[C@H]1CSSC(C)(C)[C@@H](C(=O)N[C@H](C(=O)N2CCC[C@H]2C(=O)N[C@@H](CC(=O)O)C(=O)O)[C@@H](C)CC)NC(=O)[C@H]([C@@H](C)CC)NC(=O)[C@@H]2C[C@@H]3CCCC[C@@H]3N2C(=O)[C@@H]2CCCN2C(=O)[C@H](CC(C)C)NC(=O)[C@H](CO)NC(=O)[C@H](CCCNC(=N)N)NC(=O)[C@H](CO)NC1=O
# Biological target: T1, Recombinant human MASP1 enzyme …
# Assay: cell-based or functional assay
row,Binder,human MASP1 IC50 [nM]
1,B1,58
2,[Sar]ICSRS[tBuAla]PPI[Pen]IP-{PEG9-OH} (disulfide 3-11) [((N-Me)G)-IC+SRS-((tBu)A)-PPI-(Pen)+IP-(PEG9(31 atoms))-OH],6.3
3,B2,2.35
4,B3,3.2
5,B4,2.4
6,B5,2.3
7,B6,2
8,B7,3.4
9,B8,2.3
10,[Sar]ICSRS[tBuAla]PPI[Pen]IP-{PEG8-OH} (disulfide 3-11) [((N-Me)G)-IC+SRS-((tBu)A)-PPI-(Pen)+IP-(PEG8(28 atoms))-OH],7.9
11,B9,3
12,B10,2.6
13,B11,5.2
14,B12,19.5

# Biological target: Recombinant human MASP2 enzyme (fragment corresponding to amino acids 297-686, C-terminal His Tag) (human, UniProt O00187 297-686)
# Sequence (O00187 other isoform, or with tags, fused parts or gaps limits assumed): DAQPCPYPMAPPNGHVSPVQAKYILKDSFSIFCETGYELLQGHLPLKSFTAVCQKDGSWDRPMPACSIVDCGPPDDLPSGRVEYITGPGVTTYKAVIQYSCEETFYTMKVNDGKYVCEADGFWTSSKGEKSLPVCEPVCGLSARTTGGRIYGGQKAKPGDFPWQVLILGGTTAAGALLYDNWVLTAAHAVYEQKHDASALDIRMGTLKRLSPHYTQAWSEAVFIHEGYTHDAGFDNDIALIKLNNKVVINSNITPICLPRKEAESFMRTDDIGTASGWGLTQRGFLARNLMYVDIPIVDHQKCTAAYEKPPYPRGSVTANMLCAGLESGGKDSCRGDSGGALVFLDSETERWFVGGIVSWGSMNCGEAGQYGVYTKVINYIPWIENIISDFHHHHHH
# Assay: cell-based or functional assay
row,Binder,human MASP2 IC50 [nM]
1,B1,43
2,[Sar]ICSRS[tBuAla]PPI[Pen]IP-{PEG9-OH} (disulfide 3-11) [((N-Me)G)-IC+SRS-((tBu)A)-PPI-(Pen)+IP-(PEG9(31 atoms))-OH],62
3,B2,48
4,B3,120
5,B4,32
6,B5,47
7,B6,31
8,B7,37
9,B8,39
10,[Sar]ICSRS[tBuAla]PPI[Pen]IP-{PEG8-OH} (disulfide 3-11) [((N-Me)G)-IC+SRS-((tBu)A)-PPI-(Pen)+IP-(PEG8(28 atoms))-OH],76
11,B9,180
12,B10,84
13,B11,110
14,B12,21
